Activity data for one molecule are collected here from patent US20250283063, “NOVEL CRISPR-CAS12I SYSTEMS AND USES THEREOF” (HUIDAGENE THERAPEUTICS (SINGAPORE) PTE. LTD., published 2025).

The target in series [1] is T1, xCas12i v5.3 (N243R,D892R).
T1 chain: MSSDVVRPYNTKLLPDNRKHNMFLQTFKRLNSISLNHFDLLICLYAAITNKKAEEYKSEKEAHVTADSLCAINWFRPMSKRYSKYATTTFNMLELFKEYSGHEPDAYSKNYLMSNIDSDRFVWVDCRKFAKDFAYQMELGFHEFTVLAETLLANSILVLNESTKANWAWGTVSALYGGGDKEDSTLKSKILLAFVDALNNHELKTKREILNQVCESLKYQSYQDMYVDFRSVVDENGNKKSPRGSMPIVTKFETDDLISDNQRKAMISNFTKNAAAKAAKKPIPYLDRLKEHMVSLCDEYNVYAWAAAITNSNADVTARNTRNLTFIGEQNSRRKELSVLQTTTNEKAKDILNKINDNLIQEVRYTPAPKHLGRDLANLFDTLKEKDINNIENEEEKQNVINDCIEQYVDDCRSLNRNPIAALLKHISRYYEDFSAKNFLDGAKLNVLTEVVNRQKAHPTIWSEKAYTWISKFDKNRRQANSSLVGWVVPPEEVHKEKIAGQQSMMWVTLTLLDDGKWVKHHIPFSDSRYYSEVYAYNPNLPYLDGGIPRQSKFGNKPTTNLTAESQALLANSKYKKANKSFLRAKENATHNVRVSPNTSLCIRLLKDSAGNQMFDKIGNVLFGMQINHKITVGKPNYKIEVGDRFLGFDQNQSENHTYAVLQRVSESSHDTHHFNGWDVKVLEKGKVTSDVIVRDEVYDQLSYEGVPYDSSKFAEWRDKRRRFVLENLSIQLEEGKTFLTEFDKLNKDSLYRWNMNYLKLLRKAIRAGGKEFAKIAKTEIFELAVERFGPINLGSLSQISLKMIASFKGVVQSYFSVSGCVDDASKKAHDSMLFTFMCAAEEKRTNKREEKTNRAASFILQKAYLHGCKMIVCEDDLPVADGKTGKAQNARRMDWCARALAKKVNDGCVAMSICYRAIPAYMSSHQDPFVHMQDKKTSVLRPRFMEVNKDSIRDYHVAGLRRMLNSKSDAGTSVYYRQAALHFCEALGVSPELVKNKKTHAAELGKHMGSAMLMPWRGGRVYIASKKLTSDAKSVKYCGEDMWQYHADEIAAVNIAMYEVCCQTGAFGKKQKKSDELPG
The experiment in a line: cell_activity; PAM TTTG; on-target. To be noted: tags: NLS.

In series [2] the target is T2, xCas12i v6.1 (N243R,E336R,V880R).
T2 chain: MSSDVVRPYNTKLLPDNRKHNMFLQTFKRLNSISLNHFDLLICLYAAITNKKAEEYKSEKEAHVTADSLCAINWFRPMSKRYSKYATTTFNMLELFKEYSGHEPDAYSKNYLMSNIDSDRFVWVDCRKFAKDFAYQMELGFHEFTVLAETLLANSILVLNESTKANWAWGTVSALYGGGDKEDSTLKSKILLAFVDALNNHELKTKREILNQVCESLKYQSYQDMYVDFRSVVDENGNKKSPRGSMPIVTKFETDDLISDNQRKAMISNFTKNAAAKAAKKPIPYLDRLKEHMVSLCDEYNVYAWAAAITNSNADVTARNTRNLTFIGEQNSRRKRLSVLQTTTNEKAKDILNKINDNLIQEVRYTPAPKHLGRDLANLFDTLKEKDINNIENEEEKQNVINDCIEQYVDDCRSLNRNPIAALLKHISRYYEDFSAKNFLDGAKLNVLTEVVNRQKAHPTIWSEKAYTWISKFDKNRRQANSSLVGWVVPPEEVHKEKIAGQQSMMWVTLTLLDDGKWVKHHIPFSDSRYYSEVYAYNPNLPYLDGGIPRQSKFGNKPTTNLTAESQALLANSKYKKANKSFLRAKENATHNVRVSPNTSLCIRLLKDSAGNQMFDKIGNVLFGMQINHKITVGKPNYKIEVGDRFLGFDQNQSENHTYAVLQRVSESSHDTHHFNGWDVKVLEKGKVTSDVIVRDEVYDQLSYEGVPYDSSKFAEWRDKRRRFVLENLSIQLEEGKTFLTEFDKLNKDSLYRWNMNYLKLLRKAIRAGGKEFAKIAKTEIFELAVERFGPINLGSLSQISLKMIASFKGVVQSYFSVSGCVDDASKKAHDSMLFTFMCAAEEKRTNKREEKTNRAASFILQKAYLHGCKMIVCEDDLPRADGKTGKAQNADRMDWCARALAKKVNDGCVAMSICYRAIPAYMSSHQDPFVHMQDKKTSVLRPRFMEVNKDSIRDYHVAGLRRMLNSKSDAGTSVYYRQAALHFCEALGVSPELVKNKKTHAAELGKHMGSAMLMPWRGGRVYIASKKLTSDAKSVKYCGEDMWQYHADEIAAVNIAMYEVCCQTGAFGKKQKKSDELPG
Description: cell_activity; PAM TTTG; on-target. To be noted: tags: NLS.

B1: TTR.2 crRNA ; TTR ON.1 (ssRNA ; dsDNA)
RNA: AUGACUCAGAAAUGUGUCCCCAGUUGACACUAGAAGGGAUAUACAAAGUGGA
DNA 1: TTTGTAGAAGGGATATACAAAGTGGA
DNA 2: TCCACTTTGTATATCCCTTCTACAAA
For B1, the activity was 75.8% in series [1] and 75.7% in series [2].
